Laboratory results published in PMC8249414, “Structural basis of ALC1/CHD1L autoinhibition and the mechanism of activation by the nucleosome” (Nature Communications, 2021).

B1: ALC1 R857Q mutant (enzyme)
chain: MERAGATSRGGQAPGFLLRLHTEGRAEAARVQEQDLRQWGLTGIHLRSYQLEGVNWLAQRFHCQNGCILGDEMGLGKTCQTIALFIYLAGRLNDEGPFLILCPLSVLSNWKEEMQRFAPGLSCVTYAGDKEERACLQQDLKQESRFHVLLTTYEICLKDASFLKSFPWSVLVVDEAHRLKNQSSLLHKTLSEFSVVFSLLLTGTPIQNSLQELYSLLSFVEPDLFSKEEVGDFIQRYQDIEKESESASELHKLLQPFLLRRVKAEVATELPKKTEVVIYHGMSALQKKYYKAILMKDLDAFENETAKKVKLQNILSQLRKCVDHPYLFDGVEPEPFEVGDHLTEASGKLHLLDKLLAFLYSGGHRVLLFSQMTQMLDILQDYMDYRGYSYERVDGSVRGEERHLAIKNFGQQPIFVFLLSTRAGGVGMNLTAADTVIFVDSDFNPQNDLQAAARAHRIGQNKSVKVIRLIGRDTVEEIVYRKAASKLQLTNMIIEGGHFTLGAQKPAADADLQLSEILKFGLDKLLASEGSTMDEIDLESILGETKDGQWVSDALPAAEGGSRDQEEGKNHMYLFEGKDYSKEPSKEDRKSFEQLVNLQKTLLEKASQEGRSLRNKGSVLIPGLVEGSTKRKRVLSPEELEDRQKKRQEAAAKRRRLIEEKKRQKEEAEHKKKMAWWESNNYQSFCLPSEESEPEDLENGEESSAELDYQDPDATSLKYVSGDVTHPQAGAEDALIVHCVDDSGHWGRGGLFTALEKRSAEPRKIYELAGKMKDLSLGGVLLFPVDDKESRNKGQDLLALIVAQHRDRSNVLSGIKMAALEEGLKKIFLAAKKKKASVHLPRIGHATKGFNWYGTEQLIRKHLAARGIPTYIYYFPRSKS
notes: ALC1 (CHD1L), human, residues 1-880 with R857Q; the mutant was made by mutagenesis; also called R857Q of ALC1; source: E. coli Rosetta (DE3), purified (Ni-NTA, Source-15S, Superdex-200)
B2: single-chain antibody (scFv) against ALC1 used for crystallization (scFv, V domains shown)
VH: QVQLQQSGPGLVRPSQTLSLTCAISGDSVSDNDAAWNWVRQSPSRGLEWLGRTYYRSKWSNEYAVFVQSRITINPDTSKNQFSLHLNSVTPEDTAVYYCARATRPTGNGLDIWGQGTMVTVSS
VL: SYVLTQPPSVSVAPGQTARITCGGNNIGSKSVHWYQQKPGQAPVLVVYDDSDRPSGIPERFSGSNSGNTAALTISRVEAGDEADYYCQVWDSSSDHVVFGGGTKLTVL
notes: human scFv from a non-immunized yeast-display library; One of seven clones; also called the antibody; source: HEK293F, transfected, secreted, purified (Ni-NTA, Superdex 75)

How the values were obtained:
[1] = target: histone H4 (in the nucleosome) (UniProt P62799 2-103); assay: cryo-EM structure; R857Q of ALC1 (30 μM) mixed with 167NCP (6 μM), ADP-BeFx, GraFix; single-binding map 2.8 Å; a class with two copies of ALC1 on the nucleosome 3.3 Å; details: both partners purified
[2] = target: T1, human ALC1 (residues 1-880) (human, UniProt Q86WJ1); assay: crystal structure; ALC1-scFv complex (mixed 1:1.1, purified on Superdex 200), crystallised in the presence of ADP-Mg; 3.5 Å; details: both partners purified
T1 construct: ALC1 (CHD1L), human, residues 1-880 cloned from cDNA; the crystallised construct holds the motor domain, the linker region and the macro domain; also called CHD1L; WT; source: E. coli Rosetta (DE3), purified (Ni-NTA, Source-15S, Superdex-200)

| Binder | binding result [1] | binding result [2] |
| --- | --- | --- |
| B1 | binds |  |
| B2 |  | binds |
